Laboratory results from publication PMC3338121.

Each substance was assayed against Recombinant soluble empty (peptide free) HLA-DR1 (human) (assay: competitive peptide binding assay).

| Substance | Kd [nM] |
| --- | --- |
| P2,7,10 SPG peptide (HA_(306–319) substituted at P2, P7 and P10), unlabeled | 605 |
| P2,3,7,10 SDPG peptide (HA_(306–319) substituted at P2, P3, P7 and P10), unlabeled | 313000 |
| P2 S peptide (HA_(306–319) substituted at P2), unlabeled | 97.2 |
| P2,10 SG peptide (HA_(306–319) substituted at P2 and P10), unlabeled | 373 |
